The data set has as its system TRF2DBD+L. The data set can be described thus: differential centrifugation. The note with it: self-association; agarose gel binding detected at 10-fold lower concentration; EMSA buffer composition not in the material (AFM incubations: without Mg2+ and KCl, 30 min, room temperature); strand insertion assay: 50 mM HEPES, 100 mM …. (In general: In EMSA bound probe runs differently from free probe, usually more slowly.)

“pRST5 2 kb telomeric fragment, histone-free (Tel DNA)”: the binding signal (% sedimented at up to 1 uM) came out at 20.

The values above are taken from publication PMC3079743.
